# Source: patent US20250197451A1 (CAPITAL MEDICAL UNIVERSITY SCHOOL OF STOMATOLOGY, published 2025)
# Target: T1, biotin-labelled EZH2 protein (UniProt Q15910 1-746, limits assumed, biotin label (EZ-link NHS-PEO4-Biotinylation kit))
# T1 construct: Probe in solution (1 ug/ml) on the KDM2B peptide microarray; also called NHS-PEO4-Biotinylation-labelled EZH2 protein; recombinant protein
# Assay: KDM2B peptide array probed with biotin-EZH2 1 ug/ml, SA-HRP/ECL;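 as to Intensity (%): Background-corrected optical density of each spot on the membrane, given as percent of the brightest spot (100%), color developed for 5 minutes; 100% is the highest background-corrected spot optical density on the membrane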
# Description: (§1) After blocking, the polypeptide microarray was incubated with biotin-labeled target protein for hybridization, visualized with the chemical chromogenic substrate and imaged using a Chempchemi digital imager. The image of colored polypeptide microarray was analyzed for the optical density of the colored points. Particularly, the optical density of each colored point was calculated using the optical density of the respective surrounding background as a reference for background correction. The highest optical density value of the colored point on membrane was set to 100%, and the optical density value of the remaining colored points was converted into percentages relative to the highest value. The points with an optical density percentage of more than 30% on the polypeptide membrane and also with an optical density percentage of less than 30% on the negative membrane were defined as positive colored points.
# (§2) For the hybridization experiment, a solution of NHS-PEO4-Biotinylation-labelled EZH2 protein (1 μg/ml) was used for the hybridization of the polypeptide microarray. Streptavidin-HRP was used to amplify the reaction signal according to the experimental procedure and conditions described above, and the time of color development was 5 minutes.
# T1 sequence (Q15910 whole entry): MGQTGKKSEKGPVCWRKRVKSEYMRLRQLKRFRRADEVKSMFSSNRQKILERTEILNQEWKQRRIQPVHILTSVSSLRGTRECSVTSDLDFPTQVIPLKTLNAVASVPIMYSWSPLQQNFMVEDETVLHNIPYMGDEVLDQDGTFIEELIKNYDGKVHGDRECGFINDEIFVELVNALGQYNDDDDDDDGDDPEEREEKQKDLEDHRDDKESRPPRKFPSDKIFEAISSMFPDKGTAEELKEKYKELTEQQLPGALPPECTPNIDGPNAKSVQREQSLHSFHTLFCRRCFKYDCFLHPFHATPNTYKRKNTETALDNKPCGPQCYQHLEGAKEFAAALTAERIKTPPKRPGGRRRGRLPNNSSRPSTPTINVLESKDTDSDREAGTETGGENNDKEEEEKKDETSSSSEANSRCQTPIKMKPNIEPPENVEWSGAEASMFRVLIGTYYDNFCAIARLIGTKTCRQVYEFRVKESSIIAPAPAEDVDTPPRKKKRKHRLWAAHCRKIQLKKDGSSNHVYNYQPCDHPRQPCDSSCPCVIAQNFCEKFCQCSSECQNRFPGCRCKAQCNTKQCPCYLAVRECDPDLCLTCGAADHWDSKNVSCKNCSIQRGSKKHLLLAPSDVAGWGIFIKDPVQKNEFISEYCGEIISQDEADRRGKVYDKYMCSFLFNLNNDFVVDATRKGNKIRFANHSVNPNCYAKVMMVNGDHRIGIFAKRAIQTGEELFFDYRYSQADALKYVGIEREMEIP
row,Binder,binding result
1,EEEACDQQPQEEEEK [peptide 83],no binding
2,DQQPQEEEEKDEEGE [peptide 84],no binding

# Target: T1, biotin-labelled EZH2 protein
# Assay: as above
# Remark: another data set of the same source
# Description: as §1, §2
row,Binder,Intensity (%)
1,EEEACDQQPQEEEEK [peptide 83],0%
2,DQQPQEEEEKDEEGE [peptide 84],0%

# Target: T1, biotin-labelled EZH2 protein
# Assay: KDM2B peptide array probed with biotin-EZH2 1 ug/ml, SA-HRP/ECL; Remark: noise
# Description: as §1, §2
row,Binder,Intensity (%)
1,RPPGICERPHRFSKG [peptide 198],0%
2,MGGSAEDHPPRKRHA [peptide 2],0%
3,LNGTPRELRHQLGPS [peptide 201],0.18%
4,RELRHQLGPSLRSPP [peptide 202],0.64%
5,RVISRPPPSVSPPKC [peptide 205],0.39%
6,IQMERHVIRPPPISP [peptide 208],0%
7,HVIRPPPISPPPDSL [peptide 209],0.32%
8,PPISPPPDSLPLDDG [peptide 210],0%
9,TWNRWCCDKRLWTRI [peptide 219],0.56%
10,KSITPLMLSGIIRRQ [peptide 223],0%
11,IIRRQPVSLDLSWTN [peptide 225],0%
12,LSWTNISKKQLSWLI [peptide 227],0%
13,ISKKQLSWLINRLPG [peptide 228],0%
14,LSWLINRLPGLRDLV [peptide 229],0%
15,NRPGQMDNRSKLRNI [peptide 241],0%
16,TDASLRLIIRHMPLL [peptide 246],0%
17,VTDQCLSFFKRCGNI [peptide 257],0.23%
18,LSFFKRCGNICHIDL [peptide 258],0.72%

row,Binder,Intensity (%)
1,VTKEGCEQFIAEMSV [peptide 262],0%
2,CEQFIAEMSVSVQFG [peptide 263],0.05%
3,VQFGQVEEKLLQKLS [peptide 266],0%
4,FVRYYETPEAQRDKL [peptide 32],0%
5,ETPEAQRDKLYNVIS [peptide 33],0%
6,NAIAEMKYPKVKKYC [peptide 44],0%
7,GGTSVWYHVFRGGKI [peptide 50],0%
8,PTLHNLALYEEWVLS [peptide 54],0%
9,DRTRVQPKFRYPFYY [peptide 70],0.02%
10,EMCWYVLERYVYCVT [peptide 73],0.19%
11,TQEYQRESMLIDAPR [peptide 77],0%
12,EFESATQRPIDRQRY [peptide 8],0%
13,DGSTSPTSTPSEDQE [peptide 89],0%
14,PTSTPSEDQEALGKK [peptide 90],0.19%
15,SEDQEALGKKPKAPA [peptide 91],0%
16,ALGKKPKAPALRFLK [peptide 92],0%
17,ESEESVKSTTLAVDY [peptide 96],0%
18,PKTPTGSPATEVSAK [peptide 99],0%

# Target: T1, biotin-labelled EZH2 protein
# Assay: KDM2B peptide array probed with biotin-EZH2 1 ug/ml, SA-HRP/ECL; Remark: spike
# Description: as §1, §2
row,Binder,Intensity (%)
1,EDTVEEEEGKFNLML [peptide 135],0%
2,SNLPGSLLKEQKMNR [peptide 149],0%
3,SLLKEQKMNRDNKEG [peptide 150],0%
4,RRSECEEAPRRRSDE [peptide 154],0%
5,DDVHLRKKRKYEKPQ [peptide 160],0%
6,VYTPVDSLVFGGNIL [peptide 64],0%
7,DSLVFGGNILHSFNV [peptide 65],0%
